{"source": "paper PMC9352680", "about": "“A comprehensive thermodynamic model for RNA binding by the Saccharomyces cerevisiae Pumilio protein PUF4”", "biological_target": "T1, PUF4 RNA-binding domain (Saccharomyces cerevisiae, UniProt P25339 537-888)", "T1 sequence": "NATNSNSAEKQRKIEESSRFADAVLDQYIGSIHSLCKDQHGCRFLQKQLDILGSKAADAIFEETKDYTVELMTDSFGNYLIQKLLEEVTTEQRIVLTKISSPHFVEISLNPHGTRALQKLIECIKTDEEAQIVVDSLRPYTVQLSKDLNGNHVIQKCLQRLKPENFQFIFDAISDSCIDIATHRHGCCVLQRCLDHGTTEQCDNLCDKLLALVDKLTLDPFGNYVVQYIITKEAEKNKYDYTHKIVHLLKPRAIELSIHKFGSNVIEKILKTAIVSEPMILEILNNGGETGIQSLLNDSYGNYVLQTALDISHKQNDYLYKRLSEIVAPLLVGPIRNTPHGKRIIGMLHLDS", "experiment": "Mg; RNA-MaP; 20 mM Na-HEPES pH 7.4, 30 mM KOAc, 0.75 mM MgCl2, 0.1% Tween-20, 5% glycerol, 0.1 mg/mL BSA, 2 mM DTT; 25 C; 0.0125-409.6 nM protein", "settings": "tags: N-His6-TEV cleaved; C-SNAP kept, Cy3B-labelled; label: tethered on chip by stalled RNA polymerase", "data": [{"binder": "UCUCUUGGUAUUAUUGUCUCUU (ssRNA)", "note": "[Ib_S1_P5E.1_K5.1_C5.1_H5.1_[T1G]_A5.1_F5.1_[A10G]_T5.1]", "values": [{"measurement": "Kd", "value": "> 2300", "unit": "nM"}]}, {"binder": "UCUCUUUGUUUUAUAAUCUCUU (ssRNA)", "note": "[Ib_S1_P5E.1_K5.1_C5.1_H5.1_[A4T]_A5.1_F5.1_[T9A]_T5.1]", "values": [{"measurement": "Kd", "value": 87.4, "unit": "nM"}]}, {"binder": "UCUCUUAGUAUUAUUGUCUCUU (ssRNA)", "note": "[Ib_S1_P5E.1_K5.1_C5.1_H5.1_[T1A]_A5.1_F5.1_[A10G]_T5.1]", "values": [{"measurement": "Kd", "value": "> 2300", "unit": "nM"}]}, {"binder": "UCUCUUGGUAUUAUUCUCUCUU (ssRNA)", "note": "[Ib_S1_P5E.1_K5.1_C5.1_H5.1_[T1G]_A5.1_F5.1_[A10C]_T5.1]", "values": [{"measurement": "Kd", "value": "> 2300", "unit": "nM"}]}, {"binder": "Id_ii_S2_P4E.2_K4.1_C4.2_[C-2G]_H4.1_A4.1_F4.1_T4.2_[G10C]_[T11C] (ssRNA) RNA: UUUGAUUAAUAUGAUAUCGUUCUUUCUGUUGUAUAUUACCUUCUUUCUCGAUAUCAUAUUAAUCUUU", "values": [{"measurement": "Kd", "value": 1.8, "unit": "nM"}]}, {"binder": "Id_ii_S2_P4E.2_K4.1_C4.2_[C-2T]_H4.1_A4.1_F4.1_T4.2_[G10C]_[T11C] (ssRNA) RNA: UUUGAUUAAUAUGAUAUCGUUCUUUCUUUUGUAUAUUACCUUCUUUCUCGAUAUCAUAUUAAUCUUU", "values": [{"measurement": "Kd", "value": 0.557, "unit": "nM"}]}, {"binder": "Id_ii_S2_P4E.2_K4.1_C4.2_[C-2T]_[T-1A]_H4.1_A4.1_F4.1_T4.2_[G10C]_[T11C] (ssRNA) RNA: UUUGAUUAAUAUGAUAUCGUUCUUUCUUAUGUAUAUUACCUUCUUUCUCGAUAUCAUAUUAAUCUUU", "values": [{"measurement": "Kd", "value": 0.822, "unit": "nM"}]}, {"binder": "Id_ii_S2_P4E.2_K4.1_C4.2_[C-2G]_H4.1_A4.1_F4.1_T4.2_[G10A]_[T11A] (ssRNA) RNA: UUUGAUUAAUAUGAUAUCGUUCUUUCUGUUGUAUAUUAAAUUCUUUCUCGAUAUCAUAUUAAUCUUU", "values": [{"measurement": "Kd", "value": 0.659, "unit": "nM"}]}, {"binder": "Id_ii_S2_P4E.2_K4.1_C4.2_[C-2T]_[T-1A]_H4.1_A4.1_F4.1_T4.2_[G10T]_[T11C] (ssRNA) RNA: UUUGAUUAAUAUGAUAUCGUUCUUUCUUAUGUAUAUUAUCUUCUUUCUCGAUAUCAUAUUAAUCUUU", "values": [{"measurement": "Kd", "value": 0.618, "unit": "nM"}]}, {"binder": "Id_ii_S2_P4E.2_K4.1_C4.2_[C-2T]_[T-1C]_H4.1_A4.1_F4.1_T4.2_[G10C]_[T11C] (ssRNA) RNA: UUUGAUUAAUAUGAUAUCGUUCUUUCUUCUGUAUAUUACCUUCUUUCUCGAUAUCAUAUUAAUCUUU", "values": [{"measurement": "Kd", "value": 0.565, "unit": "nM"}]}, {"binder": "Id_ii_S2_P4E.2_K4.1_C4.2_[C-2T]_H4.1_A4.1_F4.1_T4.2_[G10T] (ssRNA) RNA: UUUGAUUAAUAUGAUAUCGUUCUUUCUUUUGUAUAUUAUUUUCUUUCUCGAUAUCAUAUUAAUCUUU", "values": [{"measurement": "Kd", "value": 0.26, "unit": "nM"}]}, {"binder": "Id_ii_S2_P4E.2_K4.1_C4.2_[C-2T]_H4.1_A4.1_F4.1_T4.2_[G10T]_[T11A] (ssRNA) RNA: UUUGAUUAAUAUGAUAUCGUUCUUUCUUUUGUAUAUUAUAUUCUUUCUCGAUAUCAUAUUAAUCUUU", "values": [{"measurement": "Kd", "value": 0.564, "unit": "nM"}]}, {"binder": "Id_ii_S2_P4E.2_K4.1_C4.2_[C-2T]_[T-1C]_H4.1_A4.1_F4.1_T4.2 (ssRNA) RNA: UUUGAUUAAUAUGAUAUCGUUCUUUCUUCUGUAUAUUAGUUUCUUUCUCGAUAUCAUAUUAAUCUUU", "values": [{"measurement": "Kd", "value": 0.446, "unit": "nM"}]}, {"binder": "Id_ii_S2_P4E.2_K4.1_C4.2_[C-2T]_[T-1C]_H4.1_A4.1_F4.1_T4.2_[G10A]_[T11C] (ssRNA) RNA: UUUGAUUAAUAUGAUAUCGUUCUUUCUUCUGUAUAUUAACUUCUUUCUCGAUAUCAUAUUAAUCUUU", "values": [{"measurement": "Kd", "value": 0.526, "unit": "nM"}]}, {"binder": "Id_ii_S2_P4E.2_K4.1_C4.2_[C-2T]_[T-1G]_H4.1_A4.1_F4.1_T4.2_[G10T]_[T11G] (ssRNA) RNA: UUUGAUUAAUAUGAUAUCGUUCUUUCUUGUGUAUAUUAUGUUCUUUCUCGAUAUCAUAUUAAUCUUU", "values": [{"measurement": "Kd", "value": 0.416, "unit": "nM"}]}, {"binder": "Id_ii_S2_P4E.2_K4.1_C4.2_[C-2T]_[T-1G]_H4.1_A4.1_F4.1_T4.2_[G10T] (ssRNA) RNA: UUUGAUUAAUAUGAUAUCGUUCUUUCUUGUGUAUAUUAUUUUCUUUCUCGAUAUCAUAUUAAUCUUU", "values": [{"measurement": "Kd", "value": 0.23, "unit": "nM"}]}, {"binder": "Id_ii_S2_P4E.2_K4.1_C4.2_[C-2T]_H4.1_A4.1_F4.1_T4.2_[G10C] (ssRNA) RNA: UUUGAUUAAUAUGAUAUCGUUCUUUCUUUUGUAUAUUACUUUCUUUCUCGAUAUCAUAUUAAUCUUU", "values": [{"measurement": "Kd", "value": 0.762, "unit": "nM"}]}, {"binder": "Id_ii_S2_P4E.2_K4.1_C4.2_[C-2T]_[T-1A]_H4.1_A4.1_F4.1_T4.2_[T11C] (ssRNA) RNA: UUUGAUUAAUAUGAUAUCGUUCUUUCUUAUGUAUAUUAGCUUCUUUCUCGAUAUCAUAUUAAUCUUU", "values": [{"measurement": "Kd", "value": 0.523, "unit": "nM"}]}, {"binder": "Id_ii_S2_P4E.2_K4.1_C4.2_[C-2A]_[T-1C]_H4.1_A4.1_F4.1_T4.2_[G10C] (ssRNA) RNA: UUUGAUUAAUAUGAUAUCGUUCUUUCUACUGUAUAUUACUUUCUUUCUCGAUAUCAUAUUAAUCUUU", "values": [{"measurement": "Kd", "value": 1.25, "unit": "nM"}]}, {"binder": "Id_ii_S2_P4E.2_K4.1_C4.2_[C-2A]_[T-1G]_H4.1_A4.1_F4.1_T4.2_[G10T]_[T11C] (ssRNA) RNA: UUUGAUUAAUAUGAUAUCGUUCUUUCUAGUGUAUAUUAUCUUCUUUCUCGAUAUCAUAUUAAUCUUU", "values": [{"measurement": "Kd", "value": 2.27, "unit": "nM"}]}, {"binder": "Id_ii_S2_P4E.2_K4.1_C4.2_[C-2T]_[T-1C]_H4.1_A4.1_F4.1_T4.2_[G10A]_[T11A] (ssRNA) RNA: UUUGAUUAAUAUGAUAUCGUUCUUUCUUCUGUAUAUUAAAUUCUUUCUCGAUAUCAUAUUAAUCUUU", "values": [{"measurement": "Kd", "value": 0.481, "unit": "nM"}]}, {"binder": "Id_ii_S2_P4E.2_K4.1_C4.2_[C-2T]_[T-1C]_H4.1_A4.1_F4.1_T4.2_[G10C] (ssRNA) RNA: UUUGAUUAAUAUGAUAUCGUUCUUUCUUCUGUAUAUUACUUUCUUUCUCGAUAUCAUAUUAAUCUUU", "values": [{"measurement": "Kd", "value": 0.602, "unit": "nM"}]}]}
